Source: patent US6566047B1, “Method for identifying neurite-growth promoting agents” (The Regents of the University of Colorado, priority 1998, dated 2003)

B1: BDNF: brain-derived neurotrophic factor (protein, UniProt P23560 19-247, looked up)
Neurotrophic factor BDNF …: APMKEANIRGQGGLAYPGVRTHGTLESVNGPKAGSRGLTSLADTFEHVIEELLDEDQKVRPNEENNKDADLYTSRVMLSSQVPLEPPLLFLLEEYKNYLDAANMSMRVRRHSDPARRGELSVCDSISEWVTAADKKTAVDMSGGTVTVLEKVPVSKGQLKQYFYETKCNPMGYTKEGCRGIDKRHWNSQCRTTQSYVRALTMDSKKRIGWRFIRIDTSCVCTLTIKRGR
B2: SemaIV: recombinant semaphorin IV, repellent and putative tumor suppressor (protein, UniProt Q13275 19-785, looked up)
Semaphorin-3F: SFPTQDHLPATPRVRLSFKELKATGTAHFFNFLLNTTDYRILLKDEDHDRMYVGSKDYVLSLDLHDINREPLIIHWAASPQRIEECVLSGKDVNGECGNFVRLIQPWNRTHLYVCGTGAYNPMCTYVNRGRRAQATPWTQTQAVRGRGSRATDGALRPMPTAPRQDYIFYLEPERLESGKGKCPYDPKLDTASALINEELYAGVYIDFMGTDAAIFRTLGKQTAMRTDQYNSRWLNDPSFIHAELIPDSAERNDDKLYFFFRERSAEAPQSPAVYARIGRICLNDDGGHCCLVNKWSTFLKARLVCSVPGEDGIETHFDELQDVFVQQTQDVRNPVIYAVFTSSGSVFRGSAVCVYSMADIRMVFNGPFAHKEGPNYQWMPFSGKMPYPRPGTCPGGTFTPSMKSTKDYPDEVINFMRSHPLMYQAVYPLQRRPLVVRTGAPYRLTTIAVDQVDAADGRYEVLFLGTDRGTVQKVIVLPKDDQELEELMLEEVEVFKDPAPVKTMTISSKRQQLYVASAVGVTHLSLHRCQAYGAACADCCLARDPYCAWDGQACSRYTASSKRRSRRQDVRHGNPIRQCRGFNSNANKNAVESVQYGVAGSAAFLECQPRSPQATVKWLFQRDPGDRRREIRAEDRFLRTEQGLLLRALQLSDRGLYSCTATENNFKHVVTRVQLHVLGRDAVHAALFPPLSMSAPPPPGAGPPTPPYQELAQLLAQPEVGLIHQYCQGYWRHVPPSPREAPGAPRSPEPQDQKKPRNRRHHPPDT

What was measured:
[1] = test system: growth cone PLA2; assay: PLA2 assay in growth cone particles (GCPs); assay type: biochemical, rat; conditions: GCPs
Experimental: Growth Cone Particle (GCP) Isolation. GCPs were prepared as described by Pfenninger et al. (1983) and modified by Lohse et al., Dev. Brain Res., 96:38-96 (1996). Briefly, 18-day fetal brains were homogenized in approximately 8 volumes of 0.32 M sucrose containing 1 mM MgCl2, 2 mM TES buffer, pH 7.3, and 3 μM aprotinin. A low-speed supernatant (1,660 g×15 min) was loaded onto a discontinuous sucrose density gradient With steps of 0.83 M and 2.66 M sucrose containing MgCl2 and TES. The gradients were spun to equilibrium at 242,000 g for 40 min in a vertical rotor (Vti50, Beckman). The GCP fraction at the 0.32/0.83 M sucrose interface was collected and used for the experiments described below.
All assays were run in triplicate.

[2] = test system: MAT-Lu cells; assay: Pseudopod morphometry (pseudopod length assay), MAT-Lu cells; assay type: cell-based, rat; conditions: typically 15 min exposure
Experimental: Pseudopod Morphometry. To study the effects of various agents on pseudopods on a short-term basis, we measured pseudopod lengths. Cells plated in 35-mm diameter dishes at low density (1×10^4 per dish) were incubated overnight, tie medium was changed, and the experiments were run four hours later. First, cultures were shifted to serum-free medium, which was replaced one hour later by serum-free medium with or without the various agents (thrombin, AA or HETEs). Care was taken to avoid heat and light inactivation of the eicosanoids. Culture dishes were placed on a Zeiss inverted microscope equipped with a heated stage and viewed with a 16×phase contrast objective lens. Randomly selected fields of the cultures, containing generally about 20 cells each, were recorded, digitized and stored in the computer at the onset of the experiment and at different times thereafter.
In some cases, individual cells were monitored over different periods of time immediately after introduction of the reagent, either by mixing it into the medium or by applying it locally to one end of the cell. […] Cell morphology was recorded, and the captured images were analyzed with a Power Macintosh computer using NIH Image. Cell process length was measured from the center of the nucleus to the end of the process. […]

[3] = test system: cPLA2; assay: PLA2 activity (14C-AA release) in MAT-Lu cells; assay type: biochemical, rat; conditions: dose-dependent
Experimental: MAT-Lu cells were plated at a density of 0.5×10^6 cells per flask (T-75) and grown as detailed above to approximately 25% confluency. On the day before the experiments, the serum level in the medium was dropped to 1%. Cells were fed with fresh 1% serum-medium 4 hrs prior to harvest. For harvesting, cells were rinsed with Ca^++,Mg^++-free HBSS, covered with 2 ml cold Ca^++-free modified Krebs buffer (220 mM sucrose, 50 mM NaCl, 5 mM KCl, 22 mM HEPES, 10 mM glucose. 1.2 mM NaH2PO4 and 1.2 mM MgCl2, pH 7.3), and placed on ice. Cells were scraped off, pelleted for 5 min at 200 rpm and re-suspended in a minimal volume of Krebs buffer. Aliquots were used to determine protein concentration (Biorad Assay) and phopholipase activity. To measure PLA2 activity 10-12 μg of cell protein was incubated with or without thrombin for 10 min on ice, ^14C-AA-labeled phospholipid substrate (7 μM. 40-60 mCi/mmol) was added, and the mixture was transferred to 37° for 20 min. The reaction was stopped by adding cold cliloroform/methanol (1:2 v/v). Lipid extraction followed by thin-layer chromatography (Negre-Aminou et al., J Neurochem 67:2599-2608 (1996)) isolated the reaction product (identified by co-migration with AA standard), which was then scraped off the plates and analyzed in a scintillation spectrometer (Beckman). In some experiments, especially those involving ^14C-AA-phosphatidylinositol as substrate, the diacylglycerol-containing band (identified by co-migration of standard) also was scraped and counted in order to measure phospholipase C (PLC) activity.

Row | Molecule | activation of growth cone cPLA2/PLA2 [1] | net activity (pmol/min/mg protein) ([1]; Table 3c, substrate PI, BDNF 100, IGF-1 0.75, insulin 1, thrombin 200 nM, control 159 ± 6.2) | effect of agent alone on pseudopod length [2] | increase of cPLA2-PE activity [3]
1 | B1 | did not significantly stimulate PLA2 activity | 164 ± 10.6 pmol/min/mg protein |  | 
2 | B2 | dose-dependent activation of growth cone cPLA2 |  | causes pseudopod retraction in MAT-Lu cells | several fold
